This note sets out measurements from paper PMC10128040, “Structural Elucidation of a Protective B Cell Epitope on Outer Surface Protein C (OspC) of the Lyme Disease Spirochete, Borreliella burgdorferi” (mBio, 2023).

Series [1] has as its target recombinant OspC type B (OspCB), residues 38 to 202 (B. burgdorferi strain ZS7) (UniProt Q44977). Briefly: crystal structure; OspCB alone (22°C, 100 mM sodium phosphate citrate pH 4.2, 41.9% PEG 600; 1.5 Å) and OspCK alone (4°C, 100 mM Tris pH 8.5, 40% PEG 400, 200 mM LiSO4; 1.9 Å); P2_(1).
Series [2] addresses recombinant OspC type K (OspCK), residues 38 to 202 (B. burgdorferi strain 297). The description is as above.
Series [3] deals with native OspC type A (OspCA) on the surface of viable B. burgdorferi strain B313 (B. burgdorferi (endogenous in strain B313)) (UniProt Q07337). Put plainly: flow cytometry on cells; 5 x 10^6 live B. burgdorferi B313 cells incubated with 10 μg/mL chimeric B5 IgG1 at 37°C for 1 h in BSK-II; goat anti-human IgG-Alexa 647; BD FACSCalibur. A general note: Flow cytometry measures light scatter and fluorescence of single cells or particles in a stream.

The target of series [4] is T1, biotinylated recombinant OspC type A (OspCA) (Borreliella burgdorferi strain B31, …, UniProt Q07337, biotinylated (site not stated)).
T1 construct: Outer surface protein C type A, B. burgdorferi strain B31, residues 38 to 201; also called biotinylated OspCA; biotin-tagged recombinant OspC type A; not shown: deca-histidine, N-terminal, cleaved; SUMO, N-terminal, cleaved
Briefly: ELISA; capture ELISA: B5 IgG coated at 1 μg/mL in PBS; biotinylated OspC types A, B, K diluted 2-fold from 20 μg/mL; detected with avidin-HRP. The conditions noted are these: both partners purified. (ELISA stands for enzyme-linked immunosorbent assay.)

Series [5] concerns the target T2, biotinylated recombinant OspC type B (OspCB) (Borreliella burgdorferi strain ZS7, …, UniProt Q44977, biotinylated (site not stated)).
T2 construct: Outer surface protein C type B, B. burgdorferi strain ZS7, residues 38 to 202; also called biotinylated OspC type B; biotin-tagged recombinant OspC type B; not shown: deca-histidine, N-terminal, cleaved
Described as above. The conditions noted are these: both partners purified.

The target of series [6] is T1, biotinylated recombinant OspC type A …. Put plainly: BLI; biotinylated OspCA (3 μg/mL) captured on streptavidin biosensors; MAb B5 100 to 1.56 nM, 5 min association, 30 min dissociation; PBS with 2% BSA; 1:2 bivalent analyte model; apparent; Octet RED96e. The conditions noted are these: both partners purified.
Series [7] addresses T3, recombinant OspC type A (OspCA), residues 38 to 201 (B. burgdorferi strain B31, UniProt Q07337).
T3 construct: Outer surface protein C type A, B. burgdorferi strain B31, residues 38 to 201; Homodimer; also called rOspC type A; outer surface protein C; not shown: deca-histidine, N-terminal, cleaved; SUMO, N-terminal, cleaved
Briefly: crystal structure; B5 Fab complexed with OspCA 1:1, 10 mg/mL; sitting drop, 22°C, 100 mM sodium cacodylate pH 6.5, 5% PEG 8K, 40% MPD; 2.7 Å, P2_(1)2_(1)2. The conditions noted are these: both partners purified.

Series [8] concerns the molecule itself. The series is described as above.

“recombinant OspC type B (OspCB), residues 38 to 202 (from UniProt Q44977 38-202) (domain or fragment)”: the stoichiometry N – broadly, a count of units in the complex or per binding partner – in series [1] came to 2. On to “recombinant OspC type K (OspCK), residues 38 to 202 (domain or fragment)”, for which the stoichiometry N in series [2] came out at 2.

B1: chimeric B5 IgG1 (mouse B5 VH and VL on human IgG1 Fc and kappa light chain) (antibody, V domains shown)
VH: EVQLEESGPEQKKPGETVMMSCKASGYTFTDHSMHWVKQAPGKGLKWMGWINTETGEPTCADDFKGRFALSLETSSRTAFLQINNLKNEDTAIYFCIGRWGYYVYWGQGTTLVVSS
VL: DIQMTQSPASLSVSVGESVTIICRASENINSNLAWYQQKQGKPPQLLVYAATNLAGGVPSRFSGSGSGTQYSLKINSLQSEDFGTYYCQHVWGSPWTFGGGTKLEIK
notes: mouse B5 VH, as the VH of the heavy chain of m1; human IgG1 heavy chain constant region from the 'human IgG1 Fc' expression vector; mouse B5 VL, as the VL of the light chain of m1; human kappa light chain constant region from the expression vector; IgG1, kappa; also called chimeric derivative of B5; source: Expi293 cells, transfected, purified; copies: 2 + 2
In series [3], B1 yielded an MFI of more than 3200. Besides, the figures for the binding result in series [4] and in series [5] were “binds” and “no binding (tested: 20 μg/mL)”, respectively.

B2: B5 IgG (as used for BLI and HX-MS; mouse IgG2a or chimeric IgG1 not told) (antibody, V domains shown)
VH: EVQLEESGPEQKKPGETVMMSCKASGYTFTDHSMHWVKQAPGKGLKWMGWINTETGEPTCADDFKGRFALSLETSSRTAFLQINNLKNEDTAIYFCIGRWGYYVYWGQGTTLVVSS
VL: DIQMTQSPASLSVSVGESVTIICRASENINSNLAWYQQKQGKPPQLLVYAATNLAGGVPSRFSGSGSGTQYSLKINSLQSEDFGTYYCQHVWGSPWTFGGGTKLEIK
notes: mouse B5 VH, as the VH of the heavy chain of m1; mouse B5 VL, as the VL of the light chain of m1; The methods say the chimeric IgG1 was used for dot blot and flow cytometry, which may mean that the mouse IgG2a was used here; also called MAb B5; B5 MAb; copies: 2 + 2
Consider B2, for which the Kd in series [6] is approximately 0.2 nM.

B3: B5 Fab fragment (Fab, V domains shown)
VH: EVQLEESGPEQKKPGETVMMSCKASGYTFTDHSMHWVKQAPGKGLKWMGWINTETGEPTCADDFKGRFALSLETSSRTAFLQINNLKNEDTAIYFCIGRWGYYVYWGQGTTLVVSS
VL: DIQMTQSPASLSVSVGESVTIICRASENINSNLAWYQQKQGKPPQLLVYAATNLAGGVPSRFSGSGSGTQYSLKINSLQSEDFGTYYCQHVWGSPWTFGGGTKLEIK
notes: VH and CH1 of mouse MAb B5; VL and CL of mouse MAb B5; Fab of the mouse IgG2a MAb B5; also called Fab B5; source: papain digestion of B5 IgG from the CDC; Fc depleted by protein A FPLC; purified by SEC (Superdex 200)
B3: the “stoichiometry N” value in series [7] is 1.

B4: recombinant OspC type A (OspCA), residues 38 to 201 (domain or fragment, B. burgdorferi strain B31, UniProt Q07337 38-201, looked up)
chain: KGPNLTEISKKITDSNAVLLAVKEVEALLSSIDEIAAKAIGKKIHQNNGLDTENNHNGSLLAGAYAISTLIKQKLDGLKNEGLKEKIDAAKKCSETFTNKLKEKHTDLGKEGVTDADAKEAILKTNGTKTKGAEELGKLFESVEVLSKAAKEMLANSVKELTSP
notes: Outer surface protein C type A, B. burgdorferi strain B31, residues 38 to 201; Homodimer; also called rOspC type A; outer surface protein C; not shown: deca-histidine, N-terminal, cleaved; SUMO, N-terminal, cleaved
Regarding B4, the “stoichiometry N” value in series [8] was 2.
